Experiments:
[1] = molecular target: Pol2 1-528 (Saccharomyces cerevisiae) (UniProt P21951); settings: cited from earlier work
[2] = molecular target: Pol2CAT, the complete catalytic domain of Pol2 (residues 1–1192), exonuclease-deficient (D290A/E292A) (S. cerevisiae) (UniProt P21951); assay: ITC; 170 μM Ctf18-1-8 titrated into 25 μM Pol2CAT in the presence of 50 μM P1P2 DNA; 25°C; 20 mM HEPES pH 7.5, 160 mM NaCl, 1 mM TCEP; 1:1 hetero-association model
[3] = molecular target: T1, Pol2CAT, the complete catalytic domain of Pol2 (residues 1–1192), exonuclease-deficient (D290A/E292A) (S. cerevisiae, UniProt P21951 1-1192, D290A | E292A); assay: cryo-EM structure; 2 μM Ctf18-1-8, Pol2CAT and P1P2* DNA in 20 mM HEPES pH 7.5, 160 mM NaCl, 1 mM TCEP; GraFix sucrose gradient with 0.15% glutaraldehyde; only DNA-free classes refined (Class 1 4.2 Å, Class 2 5.8 Å); settings: both partners purified
T1 construct: Pol2, largest (catalytic) subunit of DNA Pol ϵ, S. cerevisiae, residues 1-1192; An iron-sulfur (4Fe4S) cluster is modelled in the structure; No tag cleavage step is described; also called POL2(1–1192)exo; Pol2 catalytic domain; source: E. coli BL21(DE3)Star, purified (Histrap, Superdex 200, MonoQ); not shown: His tag (from the Histrap column)
T1 sequence (looked up): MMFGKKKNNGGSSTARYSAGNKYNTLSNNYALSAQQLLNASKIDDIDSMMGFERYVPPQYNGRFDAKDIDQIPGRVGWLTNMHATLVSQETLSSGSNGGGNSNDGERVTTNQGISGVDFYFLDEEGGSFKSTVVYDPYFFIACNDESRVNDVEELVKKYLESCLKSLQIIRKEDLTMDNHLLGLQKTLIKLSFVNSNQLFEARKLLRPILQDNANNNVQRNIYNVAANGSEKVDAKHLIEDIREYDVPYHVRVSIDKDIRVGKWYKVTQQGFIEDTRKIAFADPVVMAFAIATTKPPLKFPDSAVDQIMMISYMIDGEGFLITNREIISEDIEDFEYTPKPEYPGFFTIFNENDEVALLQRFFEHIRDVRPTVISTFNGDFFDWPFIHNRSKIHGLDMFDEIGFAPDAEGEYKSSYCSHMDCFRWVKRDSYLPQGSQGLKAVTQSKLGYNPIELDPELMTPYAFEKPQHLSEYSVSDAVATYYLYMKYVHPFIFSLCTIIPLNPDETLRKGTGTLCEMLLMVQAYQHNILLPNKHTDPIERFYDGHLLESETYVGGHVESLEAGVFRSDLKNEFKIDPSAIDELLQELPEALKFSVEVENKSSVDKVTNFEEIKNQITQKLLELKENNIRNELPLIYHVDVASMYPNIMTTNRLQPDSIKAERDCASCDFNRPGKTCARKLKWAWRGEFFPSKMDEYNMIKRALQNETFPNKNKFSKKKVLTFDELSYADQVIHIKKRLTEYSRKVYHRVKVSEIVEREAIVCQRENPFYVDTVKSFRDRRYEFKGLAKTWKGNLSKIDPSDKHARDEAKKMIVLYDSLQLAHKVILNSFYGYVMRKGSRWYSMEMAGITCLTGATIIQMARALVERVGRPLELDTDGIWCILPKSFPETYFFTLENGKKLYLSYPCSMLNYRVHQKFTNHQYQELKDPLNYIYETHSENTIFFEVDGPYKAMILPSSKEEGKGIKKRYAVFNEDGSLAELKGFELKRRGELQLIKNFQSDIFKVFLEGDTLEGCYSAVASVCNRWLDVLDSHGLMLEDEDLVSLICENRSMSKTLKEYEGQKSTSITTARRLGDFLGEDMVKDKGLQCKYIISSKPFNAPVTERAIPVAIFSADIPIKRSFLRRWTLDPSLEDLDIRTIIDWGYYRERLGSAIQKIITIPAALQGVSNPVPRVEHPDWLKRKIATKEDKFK

[4] = molecular target: T2, Pol2CAT (exonuclease-deficient DNA Pol epsilon catalytic domain) (UniProt P21951 1-1192, D290A;E292A); assay: EMSA; 50 nM DNA, no dNTP; EMSA: 25 mM HEPES pH 7.5, 60 mM KCl, 10% glycerol, 1 mM TCEP, 50 nM P1P2*, 20 min on ice, 6% Tris-glycine gel at 4 C; settings: protein: recombinant; tags: N-terminal His (pETM14); label: 5' Cy3 on P1; 5' overhang 5 nt on P2 (template); 11 bp duplex
T2 sequence: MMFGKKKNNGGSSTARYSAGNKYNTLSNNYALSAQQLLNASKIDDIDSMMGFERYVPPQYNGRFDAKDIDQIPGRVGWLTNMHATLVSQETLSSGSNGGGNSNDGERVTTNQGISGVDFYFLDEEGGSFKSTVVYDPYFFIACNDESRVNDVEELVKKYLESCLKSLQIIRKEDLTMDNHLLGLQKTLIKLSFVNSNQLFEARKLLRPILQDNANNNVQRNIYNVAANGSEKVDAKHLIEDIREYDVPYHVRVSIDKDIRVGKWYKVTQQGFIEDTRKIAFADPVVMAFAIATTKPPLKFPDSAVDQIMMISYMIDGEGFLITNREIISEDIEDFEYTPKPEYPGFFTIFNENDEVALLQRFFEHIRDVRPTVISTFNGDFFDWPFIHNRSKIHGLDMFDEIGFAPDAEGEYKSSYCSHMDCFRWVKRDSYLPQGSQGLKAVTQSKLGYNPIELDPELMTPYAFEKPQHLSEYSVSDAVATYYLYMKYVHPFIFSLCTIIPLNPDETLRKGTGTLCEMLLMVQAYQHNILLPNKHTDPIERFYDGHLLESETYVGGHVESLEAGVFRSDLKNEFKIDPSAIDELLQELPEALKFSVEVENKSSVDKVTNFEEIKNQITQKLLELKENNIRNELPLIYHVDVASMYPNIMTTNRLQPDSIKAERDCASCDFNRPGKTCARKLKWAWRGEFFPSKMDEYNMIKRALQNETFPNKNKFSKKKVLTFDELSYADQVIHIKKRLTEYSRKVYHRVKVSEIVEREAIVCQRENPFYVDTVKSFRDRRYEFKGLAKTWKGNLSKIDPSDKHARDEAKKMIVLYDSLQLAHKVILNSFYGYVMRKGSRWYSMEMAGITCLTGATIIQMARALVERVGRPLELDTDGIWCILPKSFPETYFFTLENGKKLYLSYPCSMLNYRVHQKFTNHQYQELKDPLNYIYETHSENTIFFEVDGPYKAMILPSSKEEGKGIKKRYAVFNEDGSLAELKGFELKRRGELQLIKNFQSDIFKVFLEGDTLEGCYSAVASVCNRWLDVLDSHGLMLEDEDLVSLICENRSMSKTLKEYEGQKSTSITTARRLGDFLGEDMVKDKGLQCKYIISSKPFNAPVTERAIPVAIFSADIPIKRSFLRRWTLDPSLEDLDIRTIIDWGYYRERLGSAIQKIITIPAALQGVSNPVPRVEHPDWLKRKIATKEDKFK

[5] = molecular target: Pol2CAT (exonuclease-deficient DNA Pol epsilon catalytic domain);Ctf18-1-8 wild type (Ctf18 C-terminal … (Saccharomyces cerevisiae?;Saccharomyces …, UniProt P21951;P49956;P25559;P38877 1-1192;666-741;1-380;1-133, D290A;E292A|)); assay: EMSA supershift; 50 nM DNA; supershift saturated at 125 nM Ctf18-1-8 (lowest tested); DNA binding identical to Pol2CAT alone; EMSA: 25 mM HEPES pH 7.5, 60 mM KCl, 10% glycerol, 1 mM TCEP, 50 nM P1P2*, 20 min on ice, 6% Tris-glycine gel at 4 C; settings: protein: recombinant;recombinant; tags: N-terminal His (pETM14); copies: 1;1;1;1; label: 5' Cy3 on P1; 5' overhang 5 nt on P2 (template); 11 bp duplex
Pol2CAT (exonuclease-deficient DNA Pol epsilon catalytic domain);Ctf18-1-8 wild type (Ctf18 C-terminal …, sequence (P49956 666-741, chain 2 of 2): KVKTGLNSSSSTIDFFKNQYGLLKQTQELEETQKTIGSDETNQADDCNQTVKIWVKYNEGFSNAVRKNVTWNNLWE
Pol2CAT (exonuclease-deficient DNA Pol epsilon catalytic domain);Ctf18-1-8 wild type (Ctf18 C-terminal …, sequence (P38877 whole entry, chain 4 of 2, the tested form may be a part): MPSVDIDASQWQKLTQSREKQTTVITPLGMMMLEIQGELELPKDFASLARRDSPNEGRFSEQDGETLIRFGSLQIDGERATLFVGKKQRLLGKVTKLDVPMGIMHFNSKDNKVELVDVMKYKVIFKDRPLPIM

In the case of Ctf18-1-8 (from UniProt P49956), the Kd [1] is listed as 1300 nM.

“Ctf18-1-8 module (C-terminus of Ctf18 with Dcc1 and Ctf8), wild type (from UniProt P49956 1-741; P25559 1-380; P38877 1-133) (complex)” showed a Kd [2] of 40 nM.

B1: Dcc1 (chain of the recombinant Ctf18-1-8 module) (natural protein, S. cerevisiae)
chain: MSINLHSAPEYDPSYKLIQLTPELLDIIQDPVQNHQLRFKSLDKDKSEVVLCSHDKTWVLKQRKHSNTVLLMREFVPEQPITFDETLLFGLSKPYMDVVGFAKTESEFETRETHGELNLNSVPIYNGELDFSDKIMKRSSTKVIGTLEELLENSPCSALEGISKWHKIGGSVKDGVLCILSQDFLFKALHVLLMSAMAESLDLQHLNVEDTHHAVGKDIEDEFNPYTREIIETVLNKFAVQEQEAENNTWRLRIPFIAQWYGIQALRKYVSGISMPIDEFLIKWKSLFPPFFPCDIDIDMLRGYHFKPTDKTVQYIAKSTLPMDPKERFKVLFRLQSQWDLEDIKPLIEELNSRGMKIDSFIMKYARRKRLGKKTVVTSR
notes: Dcc1, S. cerevisiae; The Dcc1 chain of m2, written alone for the pairs that touch in the structures; also called Dcc1WH3 (its last winged helix domain)
B1: binds [3].

B2: P1P2* primer-template (dsDNA)
DNA 1: TAACCGCGTTC
DNA 2: CTCTTGAACGCGGTTA
B2: binds [4]; binds [5].

Source: PMC7641331, “Ctf18-RFC and DNA Pol ϵ form a stable leading strand polymerase/clamp loader complex required for normal and perturbed DNA replication” (Nucleic Acids Research, 2019)
